{
  "source": "paper doi:10.1101/2021.06.16.448687",
  "about": "(bioRxiv, 2021)",
  "proteins": {"B1": {"name": "stabilized H176C form of the soluble human LLT1 ectodomain (Gln72-Val191), glycosylated (domain or fragment, UniProt Q9UHP7 72-191, looked up)", "chain": "QAACPESWIGFQRKCFYFSDDTKNWTSSQRFCDSQDADLAQVESFQELNFLLRYKGPSDHWIGLSREQGQPWKWINGTEWTRQFPILGAGECAYLNDKGASSARCYTERKWICSKSDIHV", "modifications": "GlcNAc2Man5 N-glycans"}},
  "molecular_target": "the molecule itself",
  "assay": "AUC",
  "data": [
    {"protein": "B1", "values": [
      {"measurement": "stoichiometry N", "value": 2}
    ]}
  ]
}
